US20180126013A1 (H LEE MOFFITT CANCER CENTER AND RESEARCH INSTITUTE, published 2018)
Blank lines part the entries; values can stand above or below the binder they belong to. Square brackets hold non-standard residues; d marks the D form. Side chains are listed from the residue outwards. Ends that are not written are not given here. * marks the point of attachment. 1‑phenylbutyric acid = 1-phenylbutyric acid (N-terminal acyl cap); D‑di‑Glu = D-di-Glu linker between Lys side chain and DOTA; DOTA = O=C(O)CN1CCN(CC(=O)O)CCN(CC(=O)*)CCN(CC(=O)O)CC1; Ahx = NCCCCCC(=O)O

Tests used:
[1] = molecular target: T1, melanocortin-1 receptor (MC1R) (UniProt Q01726 1-317, limits assumed); assay: time-resolved fluorescence (TRF) competition binding assay on Hek293/MC1R cells
T1 construct: whole, on cells; also called Hek293/MC1R cells; A375/MC1R cells
T1 sequence (Q01726 whole entry): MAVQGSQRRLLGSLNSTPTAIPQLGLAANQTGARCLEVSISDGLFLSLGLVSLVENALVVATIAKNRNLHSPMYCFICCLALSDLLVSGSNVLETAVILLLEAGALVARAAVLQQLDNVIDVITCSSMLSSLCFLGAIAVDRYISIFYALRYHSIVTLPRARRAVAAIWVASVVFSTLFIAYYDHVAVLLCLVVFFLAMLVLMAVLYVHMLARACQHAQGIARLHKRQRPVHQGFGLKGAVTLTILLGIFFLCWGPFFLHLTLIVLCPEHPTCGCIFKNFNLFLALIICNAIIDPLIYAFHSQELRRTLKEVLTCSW
Procedure: (§1) Time-resolved fluorescence (TRF) competition binding assays were performed to determine binding affinities of these DOTA conjugates (FIG. 2). The TRF method takes advantage of the long fluorescence lifetime of the lanthanide Europium and can detect less than one attomole in a multiwell plate sample. Hek293/MC1R cells (Hek293 cells engineered to over-express MC1R) were used for the binding assays. Saturation TRF binding assays were performed using versions of the compounds with chelated europium to determine specific and non-specific binding (FIG. 17-20).

[2] = molecular target: T1, melanocortin-1 receptor (MC1R); assay: TRF saturation binding with the Eu chelate on Hek293/MC1R cells; specific = total minus nonspecific (20x MC1RL-DOTA block)
Procedure: The binding sequence is 1-Phenylbutyric acid-His(D)Phe-Arg-Trp-Gly-Lys(D-di-Glu-DOTA)-CONH₂. Eu is chelated into the conjugated DOTA for lanthanide-based binding assays but ²²⁵Ac, ⁶⁸Ga, or ¹¹¹In can also be chelated. […] 20×MC1Rl-DOTA was used for blocking. […] Data is the result of two repeats.
as §1

[3] = molecular target: T1, melanocortin-1 receptor (MC1R); assay: competitive binding assay (FIG. 2)
Procedure: as §1

[4] = molecular target: T1, melanocortin-1 receptor (MC1R); assay: not stated in the sentence (binding affinity of the DOTA conjugate and its chelates)

- Ki [1]: 0.34 nM
B1: ^67/69Ga-DOTA-MC1RL (peptide)
peptide: H[dF]RWGK([Ahx-DOTA])-NH2
modifications: not fully specified (N-terminus); also: nonradioactive 67/69Ga chelated by DOTA
notes: Nonradioactive surrogate of the ^68Ga PET agent

- Kd [2]: 0.69 nM
B2: MC1RL linked to DOTA:^152Eu (peptide)
peptide: {1‑phenylbutyric acid}-H[dF]RWGK(DOTA)-NH2
modifications: also: 152Eu chelate
notes: also called 1-Phenylbutyric acid-His(D)Phe-Arg-Trp-Gly-Lys(DOTA)-CONH2, Eu chelate

- Ki [3]: 0.2 nM
- Ki [1]: 0.23 nM
B3: ^139La-DOTA-MC1RL (peptide)
peptide: H[dF]RWGK([Ahx-DOTA])-NH2
modifications: not fully specified (N-terminus); also: 139La chelated by DOTA
notes: Nonradioactive surrogate of ^225Ac-DOTA-MC1RL; also called cold agent

- Kd [2]: 0.88 nM
B4: MC1RL linked through aminohexanoic acid (Ahx) to DOTA:^152Eu (peptide)
peptide: {1‑phenylbutyric acid}-H[dF]RWGK([Ahx-DOTA])-NH2
modifications: also: 152Eu chelate
notes: also called 1-Phenylbutyric acid-His(D)Phe-Arg-Trp-Gly-Lys(Ahx-DOTA)-CONH2, Eu chelate

- Ki [4]: 0.3 nM
- Ki [1]: 0.24 nM
B5: DOTA-MC1RL (unlabeled) (peptide)
peptide: H[dF]RWGK([Ahx-DOTA])-NH2
modifications: not fully specified (N-terminus)
notes: also called MC1RL-DOTA; DOTA labeled conjugate of the MC1R specific ligand

- Kd [2]: 0.19 nM
B6: MC1RL linked through D-di-Glu to DOTA:^152Eu (peptide)
peptide: {1‑phenylbutyric acid}-H[dF]RWGK([D‑di‑Glu-DOTA])-NH2
modifications: also: 152Eu chelate
notes: also called 1-Phenylbutyric acid-His(D)Phe-Arg-Trp-Gly-Lys(D-di-Glu-DOTA)-CONH2, Eu chelate
